Values quoted from earlier work, collected in paper PMC4103764.

Target: SARS 3C-like protease (SARS coronavirus) (UniProt P0C6X7)
Assay: ITC

## SARS 3C-like protease (from UniProt P0C6X7)
  Kd: 21.4 µM
